For this experiment, the target named is microtubules (tubulin).

The text below walks through data of publication PMC5432123.

Positions count from the first letter of the chain named. Names may count otherwise.

B1: UNC-104 (1-371 a.a), truncated version (domain or fragment)
chain: MSSVKVAVRVRPFNQREISNTSKCVLQVNGNTTTINGHSINKENFSFNFDHSYWSFARNDPHFITQKQVYEELGVEMLEHAFEGYNVCIFAYGQTGSGKSYTMMGKANDPDEMGIIPRLCNDLFARIDNNNDKDVQYSVEVSYMEIYCERVKDLLNPNSGGNLRVREHPLLGPYVDDLTKMAVCSYHDICNLMDEGNKARTVAATNMNSTSSRSHAVFTIVLTQKRHCADSNLDTEKHSKISLVDLAGSERANSTGAEGQRLKEGANINKSLTTLGLVISKLAEESTKKKKSNKGVIPYRDSVLTWLLRENLGGNSKTAMLAALSPADINFDETLSTLRYADRAKQIVCQAVVNEDPNAKLIRELNEEVIK
For B1, the in vitro MT gliding assay, speed of MT gliding (n = 25) was determined as 1.68 mμ/sec.

B2: UNC-104 (1-371 a.a) V6I, truncated version (domain or fragment)
chain: B1 chain with V6I
Take B2: the in vitro MT gliding assay, speed of MT gliding (n = 25) came out at 1.35 μm/sec.
